From the RNAGym collection of RNA variant scans (doi:10.1021/acssynbio.7b00057)

B1: Pistol ribozyme (parent)
chain: GGGUCGUUGUUCCAUAAUCGCGUGGAUAUGGCACGCAAGUUUCUACCGGGCACCGUAAAUGUCCGACUGGAGCCGUUCGGGCGGCUAUAAACAGACCUCAGGCCCGAAGCGUGGCGGCACCUGCCGCCGGUGGUAAAAAAGAUCGGAAGAGCACACGUCU

Variants of: B1
Assay: aptazyme ON/OFF ratio, guanine; higher = stronger switching; co-transcriptional cleavage with and without guanine

| Variant | aptazyme ON/OFF ratio |
| --- | --- |
| U7C U8A G9A U10C C12A C13G | 1.16 |
| U7C U8A G9A U10C C12A C13U | 1.24 |
| U7C G9U U10G C12U | 1.39 |
| U7C G9U U10G C12A | 1.21 |
| U7C G9U U10G C12G | 1.12 |
| U7C U8A G9A U10A U11A C13U | 1.1 |
| U7C U8A G9A U10A U11A C13A | 1.16 |
| U7C U8A G9A U10A U11A C13G | 1.12 |
| U7C G9U U10C U11C | 1.05 |
| U7C G9U U10C U11A | 1.11 |
| U7C G9U U10C U11G | 1.18 |
| U7C G9U U11G C13U | 1.15 |
| U7C G9U U11G C13G | 1.03 |
| U7C G9U U11G C13A | 1.21 |
| U7C U8A | 3.27 |
| U7C G9U U10G U11G C12G C13U | 1.08 |
| U7C G9U U10G U11G C12G C13A | 1.13 |
| U7C G9U U10G U11G C12G C13G | 1.12 |
| U7C G9U U10G U11C C13U | 1.07 |
| U7C G9U U10G U11C C13G | 1.06 |
| U7C G9U U10G U11C C13A | 1.28 |

| Variant | aptazyme ON/OFF ratio |
| --- | --- |
| U7C G9U U10C U11C C12U C13U | 1.05 |
| U7C G9U U10C U11C C12U C13A | 1.02 |
| U7C G9U U10C U11C C12U C13G | 1.02 |
| U7C G9U U10C U11A C12U C13A | 1.13 |
| U7C G9U U10C U11A C12U C13G | 1.04 |
| U7C G9U U10C U11A C12U C13U | 1.16 |
| U7C G9U U10A U11G C12U | 1.3 |
| U7C U8A G9A U10C U11C C13A | 1.03 |
| U7C U8A G9A U10C U11C C13G | 1.05 |
| U7C U8A G9A U10C U11C C13U | 0.994 |
| U7C U8A G9A U10C U11G C12G | 1.31 |
| U7C U8A G9A U10C U11G C12A | 1.05 |
| U7C U8A G9A C12U | 1.3 |
| U7C U8A G9A C12A | 1.32 |
| U7C U8A G9A C12G | 1.26 |
| U7C G9U U10C U11G C13A | 1.24 |
| U7C G9U U10C U11G C13G | 1.04 |
| U7C G9U U10C U11G C13U | 1.23 |
| U7C G9U U11G C12A C13G | 1.1 |
| U7C G9U U11G C12A C13U | 1.14 |
| U7C G9U U11G C12A C13A | 1.19 |

| Variant | aptazyme ON/OFF ratio |
| --- | --- |
| U7C U8A C12U C13U | 1.32 |
| U7C U8A C12U C13G | 1.28 |
| U7C U8A C12U C13A | 1.17 |
| U7C U8A G9A U10A C12G | 1.21 |
| U7C U8A G9A U10A C12U | 1.22 |
| U7C U8A G9A U10A C12A | 1.19 |
| U7C G9U U10G U11C C12G C13A | 1.06 |
| U7C G9U U10G U11C C12G C13U | 1.12 |
| U7C G9U U10G U11C C12G C13G | 1.11 |
| U7C G9U U10C C12G C13A | 1.05 |
| U7C G9U U10C C12G C13G | 1.06 |
| U7C G9U U10C C12G C13U | 1.07 |
| U7C G9U U11A C12U C13U | 1.2 |
| U7C G9U U11A C12U C13G | 1.14 |
| U7C G9U U11A C12U C13A | 1.32 |
| U7C G9U U10C U11A C12A C13G | 1.04 |
| U7C G9U U10C U11A C12A C13A | 1.15 |
| U7C G9U U10C U11A C12A C13U | 1.15 |
| U7C U8A G9A U10A U11C C13U | 1.05 |
| U7C U8A G9A U10A U11C C13A | 1.03 |
| U7C U8A G9A U10A U11C C13G | 1.03 |

| Variant | aptazyme ON/OFF ratio |
| --- | --- |
| U7C U8A G9A U10C U11A C13G | 1.08 |
| U7C U8A G9A U10C U11A C13A | 1.2 |
| U7C U8A G9A U10C U11A C13U | 1.16 |
| U7C G9U U10G U11A C13G | 1.06 |
| U7C G9U U10G U11A C13U | 1.06 |
| U7C G9U U10G U11A C13A | 1.09 |
| U7C G9U U10G U11A C12U | 1.08 |
| U7C G9U U10G U11A C12G | 1.27 |
| U7C G9U U10G U11A C12A | 1.2 |
| U7C U8A G9A U10C C13A | 1.03 |
| U7C U8A G9A U10C C13G | 1.05 |
| U7C U8A G9A U10C C13U | 1.51 |
| U7C U8A G9A U10C C12U C13G | 1.11 |
| U7C U8A G9A U10C C12U C13U | 1.26 |
| U7C U8A G9A U10C C12U C13A | 1.11 |
| U7C G9U U10A U11G C13G | 1.02 |
| U7C G9U U10A U11G C13A | 1.14 |
| U7C G9U U10A U11G C13U | 1.21 |
| U7C G9U U10C C12U C13A | 1.08 |
| U7C G9U U10C C12U C13U | 1.08 |
| U7C G9U U10C C12U C13G | 1.05 |
